Assay results from the DeepSol protein solubility set.

Assay: soluble on expression in E. coli; label from the status in PepcDB or PDB records

Sequence | soluble on expression in E. coli
FMFKHIIARTPARSLVDGLTSSHLGKPDYAKALEQHNAYIRALQTCDVDITLLPPDERFPDSVFVEDPVLCTSRCAIITRPGAESRRGETEIIEETVQRFYPGKVERIEAPGTVEAGDIMMVGDHFYIGESARTNAEGARQMIAILEKHGLSGSVVRLEKVLHLKTGLAYLEHNNLLAAGEFVSKPEFQDFNIIEIPEEESYAANCIWVNERVIMPAGYPRTREKIARLGYRVIEVDTSEYRKIDGGVSSMSLRF | soluble
MGSDKIHHHHHHMPGLPPPAVEPAVTSIKQEDLIQSVADALQYISYYHPVDYIKNLSAAYEREESPAAKDAIAQILINSRMCAEGHRPICQDTGIVTVFLEIGMNVRWDDATMGVEDMVNEGVRRAYNHPDNKLRASVLADPAGKRANTKDNTPAVVSTKIVPGDHLEVIVAAKGGGSEAKSKFAMLNPSDSIVDWVLKTVPTMGAGWCPPGMLGIGIGGTAEKAMLLAKEALMEPIDIVDLQARGASNRAEELRLELYEKVNALGIGAQGLGGLTTVLDIKVKDYPTHAANLPVALIPNCAATRHAHFTLDGSGPVMLDPPSLEDWPKLTYNPTNARRVNLDTITREEVASFKPGEVVLLNGKLLTGRDAAHKRMIDMLNRGETLPVDFTNRFIYYVGPVDPVRDEVVGPAGPTTATRMDKFTRQMLEQTGLLGMVGKSERGDAAIDAIRDNKAVYLMAVGGSAYLVSKAIKAARVLAFEDLGMEAIYEFEVKDMPVTVAVDSTGESVHKTGPRLWQSRIGKIPVVVE | not soluble
MPRTDLPFDELIIREYLLDNPDFFNRYPELLLAMRLPHLERGAISLVERRQELLRQRVNQLEEEITSLLTMAARNEKIFLFNTELSFKLLNCVNLESLKEVLADNLKAQFNFTHVRLISVLEADVEMKAIWAERLRKEYYFGRLTQQEAKRLFGSEVGSVALVKLADDIPVIFAVASHDATHFHPDMDNMLLEQIRRLLAHMLAKLAAALEHHHHHH | not soluble
MEDKKDALISKTISMLLDNGFAVADISGQFSASFDIIARRNIERYVLKVLYNIDTLKPTTAYQLAKVAKFLRSTATIVGEKAGGGPLEDGVIYYRHGIPISSLDTFRDYINGEKPYIYSGPGGFYVKINGEALREMRMKMSLSIGYLSHYLGVSRRSVSLYENGSSATIDVFLKLQEIIKSDLVDHTDLFKIIPDNFQEEERVDDVYIQMLLDILERIGLDTKPAYRMPFDILARDEEVVSLIASLLSEEADKTKIEIMKKISSVLEDDAFLISKHSTTRENINGCPVINIVDLEKMTSKDELLRMLEKRAR | not soluble
MGSDKIHHHHHHMSDTLLEIDNLTVDFQLPTGTVSAVKHVSFSLQPGETLALVGESGSGKSVSSTAAMRLLPELARTSGAIRFKGEDLLRATPRRMRHIRGNAISMIFQEPMTSLNPLHRIGRQIAEVLEKHRGLKGRQARTKIVELLEQVGIPDPARRIDSYPHELSGGQRQRVMIAMALACEPELLIADEPTTALDVTVQAQILALLKDLQARYGMAILFITHDLGIVRHFADRVCVMRRGELIESGPTAELFDTPRDDYTRMLIDADPRGRKTPVDPSMPVLFEAKDLQVRFTLKKRLFRASEHFEAVRGIDLTIRRGQTVGIVGESGSGKSTLGRALLRLLDSRGEIRFDGQDIAALDTAGMRPLRSRLQVVFQDPFGSLSPRMTVGEVISEGLRVHHPTLDRRQREARVIEALEDVALDPAMRNRYPHEFSGGQRQRIAIARALVLKPEFLLLDEPTSALDRSVQVTVIDLLRDLQQKHGLTYLFISHDLSVVRALADTVLVMKAGQVVEQGATEEIFANPREHYTRELMRAAFVDAA | not soluble
ATYAAASSALVPRGSHMYAPKLQGPVAVYTWEGNQVNITCEVFAYPSATISWFRDGQLLPSSNYSNIKIYNTPSASYLEVTPDSENDFGNYNCTAVNRIGQESLEFILVQADTPSSPSIDQVEPYSSTAQVQFDEPEATGGVPILKYKAEWRAVGEEVWHSKWYDAKEASMEGIVTIVGLKPETTYAVRLAALNGKGLGEISAASEFKTQPVQGE | soluble
MSLSLQQIDQIISILNKQSKPYDWVMQEFAKVEELKNFDLDLETFELLGLGLTLNKDNIFTLKTRTTKIKDEIFCIVDIESTGGVSKGEILEIGAVKIQNSKEIGRFQSFVKVKEIPKNITELTGITYEMVENASSLAKVLSDFRLFLKDSIFVAHNVRFDYSFISKALNECGFGILLNRRICTIEFAQCCIESPKYKLEVLKEFLGVENMHHRALDDALAAAEIFKYCLGKLPYHIKTTEELINFTKTARIKEGHHHHHH | soluble
MAYQSKNTDEHVTFADALLSKRYRKAQNDFLNQVERLIDWRPIRTLINKKYTKRQNAIGAPAYDVILLFKMLLLETWYNLSDCALEERINDSITFSRFLGLKMEEVSPDHSTISRFRSALTELGLMDKLLAQFNKQLSRHHISVREGVLVDASLVETPHKPNGTITIEVADDREDNRSEAEKEAEEDYQKQVVRRRKGTDEEARWVYKQKRYHYGYKKHCLTNVQGIVQKVITTAANRSDTKEFIPLLQGANIPQGTAVLADKGYACGENRSYLQTHHLQDGIMHKAQRNRALTEEEKQGNKAISPIRSTIERTFGSIRRWFHGGRCRYRGLAKTHTQNILESIAFNLYRTPGIIMSSSLG | not soluble
MQSLSPTSRYLQALNEGTHQPDDVQKEAVDRLETLYQALTAKKSSATPPGGLIARLGKLLGKNEPDAQIPVRGLYMWGGVGRGKTWLMDLFYHSLPGERKLRLHFHRFMLRVHEELTALQGQIDPLDIIADRFKTETDVLCFDEFFVTDITDAMLLGGLMKALFARGITLVATSNIPPEELYRNGLQRARFLPAIDAIKQHCDIMNVDAGVDYRLRTLTQAHLWLTPLNDETRRQMDKLWLALAGAAREHAPTLEINHRPLSTLGVENQTLAVSFATLCVEARSQHDYIALSRLFHTVLLFDVPVMTPLMENEARRFIALVDEFYERHVKLVVSAAAPLYEIYQGERLKFEFQRCLSRLQEMQSAEYLKREHMPMAGDPLEHHHHHH | not soluble
MGHHHHHHSHLKHKMMNYMKDFRMIEDSENPEIVISVGGDGTLLQAFHQYSHMLSKVAFVGVHTGHLGFYADWLPHEVEKLIIEINNSEFQVIEYPLLEIIMRYNDNGYETRYLALNEATMKTENGSTLVVDVNLRGKHFERFRGDGLCVSTPSGSTAYNKALGGALIHPSLEAMQITEIASINNRVFRTVGSPLVLPKHHTCLISPVNHDTIRMTIDHVSIKHKNVNSIQYRVANEKVRFARFRPFPFWKR | not soluble
MSLNRGIGVVTLSTLLASPSALARENPPAEDEPAALEALVVTGEKRERSLKDTASSVSLTSARDIDRKQTGNASVAEVINGSPNVVYTDSVGAPIIRGQDTQGPNNGQNVFWGGTVPRATINLDGHYLNYNEMFFGATSVWDVDSIEVFRGPQTTSQGANAIAGAIIVNTKDPTFSPEAAYQAEIGSYHSRRSSIAVSGPLAQDFAGRLAVDYAGRDTFIDYDNPKFQDSGTDQDFRALNARAKLLWLPSGIPGLESKFTFSHNDNNRPTQEAATRPFDKLDHRSTTMPSWEQDTNTSILDVAYDLDNGIRLFNQAQYSLSSVHRTTGAGGEGDADIRQKNASNESRISFGEQEDRISGMGGVYYARTRTDETLHLRGLSAFDDTKKNLGVFGELNYRLSDRWTLTTGLRYQEDRIERSGNSVLAPRPLDYQKTFSAFLPKVSLAFAATPDWTVGGLVSRGYNPGGVSLNLTTRNWAYFKEETIWNYELFTRASLLDGRLLLNGNLFFMDFKDAQYNIPVVVSPGVAQSYTINAEKAHAYGMELDLDYRLRDDLRLKASAGVLRTRIDEMSGNTGYEHNEFARSPGYTLSFGPSWDVTERLNLNAQVRYLDGYYSDTANTKAYSIKAYTLTDARASYRFNDQVQLYGYVKNVFDDRSPTYMQENRGIGGIEASMTQPRTLGIGIKGTFEGHHHHHH | not soluble
YESIDLKAVLFDMDGVLFDSMPNHAESWHKIMKRFGFGLSREEAYMHEGRTGASTINIVSRRERGHDATEEEIKAIYQAKTEEFNKCPKAERMPGALEVLTKIKSEGLTPMVVTGSGQTSLLDRLNHNFPGIFQANLMVTAFDVKYGKPNPEPYLMALKKGGFKPNEALVIENAPLGVQAGVAAGIFTIAVNTGPLHDNVLLNEGANLLFHSMPDFNKNWETLQSALKQ | not soluble
RGFAKIRDERARRDKIHNLIKRKLDPTKRFSSKQQRQLDRLTRESNLKPSELKETIREEVVEELAGAADGDDVDAVIDEAAGITTTYEPIEFEDTTVSVEDTSLGLPSHARPMSELEDLTTFEEDIAEEAATNTPADKPAAKH | not soluble
MSLEEETYVVFDVETTGLSAVYDTIIELAAVKVKGGEIIDKFEAFANPHRPLSATIIELTGITDDMLQDAPDVVDVIRDFREWIGDDILVAHNASFDMGFLNVAYKKLLEVEKAKNPVIDTLELGRFLYPEFKNHRLNTLCKKFDIELTQHHRAIYDTEATAYLLLKMLKDAAEKGIQYHDELNENMGQSNAYQRSRPYHATLLAVNSTGLKNLFKLVSLSHIHYFYRVPRIPRSQLEKYREGLLIGSACDRGEVFEGMMQKSPEEVEDIASFYDYLEVQPPEVYRHLLELELVRDEKALKEIIANITKLGEKLNKPVVATGNVHYLNDEGHHHHHH | not soluble
MATTLPVQRHPRSLFPEFSELFAAFPSFAGLRPTFDTRLMRLEDEMKEGRYEVRAELPGVDPDKDVDIMVRDGQLTIKAERTEQKDFDGRSEFAYGSFVRTVSLPVGADEDDIKATYDKGILTVSVAVSEGKPTEKHIQIRSTN | soluble
MAYRDQPLGELALSIPRASALFRQYDMDYCCGGKQTLARAAARHDVDIDIIEAQLAQLAEQPIEKDWRAVPLADIIDHIVVRYHDRHREQLPELILQATKVERVHADKPNVPRGLTKYLTALHEELSSHMMKEEQILFPMIKQGMGRQATGPISVMESEHDEAGELVDVIKHVTKNVTPPPEACTTWKAMYNGINEMIDDLMEHISLENNVLFPRALAGE | not soluble
GLECDGKVNICCKKQFFVSFKDIGWNDWIIAPSGYHANYCEGECPSHIAGTSGSSLSFHSTVINHYRMRGHSPFANLKSCCVPTKLRPMSMLYYDDGQNIIKKDIQNMIVEECGCS | soluble
MAHHHHHHMNNLTLGDSNICGTFNKLPFIESYYNRKGILLKSYSWLVKNAIGIIVLVHGLSAHLRLQYLKLNVNVVNNDYATLIDADNYYIYEDSWIEEFNKNGYSVYGIDLQGHGESDGLDKLPLHINNFDDYVYDIIDYMRRINNSIVLEKSMQKSTSNKYTIENREELLPMYLVGLSMGGNIVLRTLEILGKSNEINSNLNIKGCISLAGMISVRMVGSIDSIKYKYFYLPVMKIFSRYFPTFRPGKKKFKFEKYPFVNDLLFYDKYRFKGRITNNLAREILVALDNLHNNIDDIPKNIPILFIHSINDCLCWYEGTVSFYNKLQIDNKELYTLEDMDHVISMEPGNENVLKKILEWISNLYVQ | not soluble
MGSDKIHHHHHHMIKSVLVIRNDKIGDFVLTWPALYELKMALPNASIEVFVDPVLKDFAMACPYIDHVIVDDGDDQAITKAFAERHYDAVIVSRSQIRTYRLLRKLDIPYKLAPKLNWYQYLYQHRTSIEVPKGLGGWRKSCMMVERFLADHRIPVPTLPTRYWDLSHERRKWQDHYGQQGEERLIFAHPGTGGSSGGISPSDFAGLLAQVDKLTAIECKFVLTYSGQEIALAQQIYDLLSAQGIKVVMAEPLASLADFAKSLVAADMFMAGSTGPLHIAGLHNVPTVGFYAGRRSAPKVRWQTLTQSERRLAFTPPVGKKTGRNMALIDFDLAAKEIAAFLDTQYASQSAVS | not soluble
